Target: His-mATGL288-Str (expression product of pST44-HIS-SMT3-TEV-mATGL288-STR) (mouse) (UniProt Q8BJ56)
Sequence (Q8BJ56 1-288): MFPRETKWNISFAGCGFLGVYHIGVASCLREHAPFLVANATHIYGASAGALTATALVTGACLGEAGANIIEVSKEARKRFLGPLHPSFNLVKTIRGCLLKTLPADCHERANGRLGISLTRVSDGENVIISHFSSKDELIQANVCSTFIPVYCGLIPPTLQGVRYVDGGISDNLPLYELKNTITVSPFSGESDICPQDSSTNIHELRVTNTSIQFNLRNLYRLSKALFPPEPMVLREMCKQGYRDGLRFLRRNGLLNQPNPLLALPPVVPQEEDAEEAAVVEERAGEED

Sequence of CGI-58 (expression product of pST44-SMT3-TEV-mCGI58-HIS) (Q9DBL9 whole entry): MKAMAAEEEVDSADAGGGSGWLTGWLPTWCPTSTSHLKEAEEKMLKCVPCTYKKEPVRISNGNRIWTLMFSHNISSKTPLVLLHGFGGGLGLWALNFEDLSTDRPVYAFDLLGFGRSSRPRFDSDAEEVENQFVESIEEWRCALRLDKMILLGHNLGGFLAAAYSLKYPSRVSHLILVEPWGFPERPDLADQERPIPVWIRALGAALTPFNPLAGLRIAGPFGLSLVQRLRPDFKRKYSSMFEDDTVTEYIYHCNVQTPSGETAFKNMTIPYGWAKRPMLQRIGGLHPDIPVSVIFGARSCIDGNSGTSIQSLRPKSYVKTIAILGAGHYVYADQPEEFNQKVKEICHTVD

TAG hydrolase activity of His-mATGL288-Str coactivated by CGI-58 after storage at 4 °C, against fresh protein: 50 % loss
TAG hydrolase activity of His-mATGL288-Str coactivated by CGI-58 within 10 days of storage at -80 °C (snap frozen, 10% glycerol), against fresh protein: 50 % loss
TAG hydrolase activity of freshly purified His-mATGL288-Str, CGI-58-stimulated against basal (equimolar mCGI-58): 10 fold
TAG hydrolase activity upon CGI-58 coactivation of His-mATGL288-Str frozen in sucrose buffer at -80 °C, alone or as complex with CGI-58, against fresh protein: 40 % loss
Substance: CGI-58 (expression product of pST44-SMT3-TEV-mCGI58-HIS) (from UniProt Q9DBL9 1-351) (natural protein)

— PMC8506970
